Test results from patent US20060286117A1, “Neuronally expressed stem cell factor modulates angiogenesis and neural stem cell migration to areas of brain injury” (priority 2003, published 2006).
“Also recorded” adds a separate entry of the source. Values belong to the molecule of their own block, whether it stands above or below them.

How the values were obtained:
SCID mice [1] = experiment: In vivo angiogenesis assay, subcutaneous Matrigel plugs with SCF or β-FGF; design: species or system mouse; conditions: subcutaneous Matrigel in adult SCID mice, fourteen days after injection
Experimental: Confluent-grown ECs were treated with 50 ng/ml of SCF for 5, 10, 15, and 30 min after 24 hr of serum starvation. The ECs were collected with RIPA lysis buffer (Upstate, Charlottesville, Va.) containing 50 mM NaF, 1 mM Na3VO4, […], and Protease Inhibitor Cocktail (Roche). The antibodies were purchased from Cell Signaling Technology, Inc. (Beverly, Mass.) or as mentioned otherwise. All the primary antibodies were used in a 1:1000 dilution except for the anti-SCF antibody, which was used in a 1:2000 dilution. The primary antibodies were anti-phospho-c-Kit, anti-phospho-MEK1/2 and anti-MEK1/2, anti-phospho-p44/42 MAPK and anti-p44/42 MAPK, anti-phospho-SAPK/JNK and anti-SAPK/JNK, anti-phospho-p38 MAPK and anti-p38 MAPK, anti-phospho-Akt and anti-Akt, anti-phospho-mTOR and anti-mTOR, anti-phospho-4E-BP1 and anti-4E-BP1, anti-SCF and anti-VEGF (Chemicon, Temecula, Calif.), and anti-β-tubulin (Sigma). Re-blotting was done after membranes were stripped by re-blot kit (Chemicon). Tie2 detection in Matrigel plugs from the in vivo Matrigel assay was carried out by immunoprecipitation and immunoblotting. The gel plugs were carefully separated from muscle and skin and homogenized with RIPA lysis buffer. The resulting total tissue lysates ([…]) were immunoprecipitated with Tie2 antibody (Santa Cruz Biotechnology, Inc., Santa Cruz, Calif.) and then analyzed by immunoblot with Tie2 antibody (Zadeh et al. 2004 Am J Pathol 162:467-476).
All adult mice (6-8 weeks of age) were from NCI-Fredrick, and the animal experiments were conducted on an animal experimentation protocol approved by the NCI's animal protection committee (the “ACUC”). […]

U251 glioma = experiment: Subcutaneously implanted U251 human glioma growth; assay type: in vivo, mouse; conditions: nude mice
[2] = target: human c-Kit (SCF receptor) on human cells (NSPCs, HUVEC, HBMEC) (human) (UniProt P10721); experiment: cell-based or functional assay
[3] = target: mouse c-Kit (SCF receptor) on mouse NSPCs (mouse) (UniProt P05532); experiment: cell-based or functional assay
Chain of mouse c-Kit (SCF receptor) on mouse NSPCs (mouse) (P05532 25-979): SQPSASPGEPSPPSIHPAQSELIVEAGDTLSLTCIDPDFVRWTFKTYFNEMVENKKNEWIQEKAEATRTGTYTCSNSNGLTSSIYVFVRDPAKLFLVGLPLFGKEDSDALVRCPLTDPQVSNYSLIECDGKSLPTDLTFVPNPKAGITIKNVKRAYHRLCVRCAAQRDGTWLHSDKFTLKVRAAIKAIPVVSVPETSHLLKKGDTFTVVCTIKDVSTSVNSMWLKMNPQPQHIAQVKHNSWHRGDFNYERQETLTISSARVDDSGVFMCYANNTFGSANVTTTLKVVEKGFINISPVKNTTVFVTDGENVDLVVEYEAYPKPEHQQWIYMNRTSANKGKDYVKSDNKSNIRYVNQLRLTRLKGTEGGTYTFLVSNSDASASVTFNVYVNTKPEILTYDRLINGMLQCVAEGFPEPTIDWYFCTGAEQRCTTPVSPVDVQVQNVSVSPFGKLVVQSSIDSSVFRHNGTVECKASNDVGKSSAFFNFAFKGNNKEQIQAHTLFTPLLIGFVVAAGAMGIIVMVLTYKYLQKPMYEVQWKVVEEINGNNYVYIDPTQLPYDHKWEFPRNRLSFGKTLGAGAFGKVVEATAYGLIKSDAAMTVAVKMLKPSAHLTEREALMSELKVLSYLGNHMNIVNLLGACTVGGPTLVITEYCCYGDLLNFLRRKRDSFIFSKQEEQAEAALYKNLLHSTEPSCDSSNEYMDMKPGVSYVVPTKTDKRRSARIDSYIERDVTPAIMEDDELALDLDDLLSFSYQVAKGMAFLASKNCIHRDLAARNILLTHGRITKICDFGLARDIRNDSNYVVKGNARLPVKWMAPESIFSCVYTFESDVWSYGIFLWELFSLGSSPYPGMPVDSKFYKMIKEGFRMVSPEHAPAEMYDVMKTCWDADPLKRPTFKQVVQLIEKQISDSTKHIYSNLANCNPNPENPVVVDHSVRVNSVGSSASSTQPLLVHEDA

c-Kit [4] = target: T1, c-Kit (Homo sapiens, UniProt P10721); experiment: c-Kit tyrosine phosphorylation by immunoprecipitation and immunoblot, human NSPCs; assay type: cell-based; conditions: 100 ng/ml of rmSCF, 10 min
T1 construct: The 120-kDa and 140-kDa bands represent the c-Kit proteins in the human and mouse NSPCs; endogenous in cells; host or cells: human fetal NSPCs (neurospheres)
Experimental: (§1) Injured dorsal forebrains were dissected 24 hours, 3 days, 5 days, 7 days and 12 days after injury and were homogenized in a lysis buffer containing 50 mM Tris-HCl (pH 8.0), 120 mM NaCl, 0.5% Nonidet P-40, and Protease Inhibitor Cocktail (Roche, Indianapolis, Ind., USA). Brain tissue was kept on ice for 30 min and supernatants were collected after centrifugation. The brain lysates were separated by a 4-12% polyacrylamide gel electrophoresis (Invitrogen) and transferred to the membranes. The filters were blotted with rabbit polyclonal anti-SCF antibody (1:50 dilution; Chemicon, Temecula, Calif., USA). The NSPCs were treated or not treated with 100 ng/ml of rmSCF or were left untreated for 10 min and then were washed with ice-cold PBS. Some mouse NSPCs were treated with rat monoclonal c-Kit blocking antibody, (ACK4; PharMingen, San Diego, Calif., USA) for 30 min at room temperature before SCF stimulation. The NSPCs were resuspended in a protease inhibitor mixture containing radioimmunoprecipitation (RIPA) buffer (1% NP-40, 0.5% Sodium deoxycholate, 0.1% SDS, 0.1 mg/ml PMSF, 0.1 mM NaVO4 in PBS). The cell lysates were pre-cleared with protein A-Sepharose (Amersham Pharmacia Biotech, Piscataway, N.J., USA), incubated with rabbit polyclonal antibody to c-Kit (Clone H-300, Santa Cruz, San Diego, Calif., USA), and collected on protein A-Sepharose beads. […]

SCID mice [5] = experiment: In vivo angiogenesis assay, matrigel plug with rmSCF (Example 3); design: species or system mouse; conditions: rmSCF 50 ng/ml, subcutaneous, 7 days, vs PBS control
Experimental: Recombinant mouse SCF (rmSCF) was used at 50 ng/ml in an in vivo angiogenesis assay. The matrigel plug containing SCF or PBS control was placed subcutaneously in SCID mice for 7 days, and the blood vessel formation within the gel was examined by H&E staining. […] In the higher magnification figure on the right side, the red blood cells inside of the newly formed vessel are indicated by an arrow.

endogenous NSPCs = experiment: In vivo progenitor cell migration, BrdU labeling and intracerebral rmSCF injection; design: species or system mouse
c-Kit [6] = target: T2, c-Kit (Mus musculus, UniProt P05532); experiment: c-Kit tyrosine phosphorylation by immunoprecipitation and immunoblot, mouse NSPCs; assay type: cell-based; conditions: 100 ng/ml of rmSCF, 10 min
T2 construct: The 120-kDa and 140-kDa bands represent the c-Kit proteins in the human and mouse NSPCs; endogenous in cells; host or cells: mouse E14 NSPCs (neurospheres)
T2 sequence (P05532 25-979): as above
Experimental: as §1

human NSPCs = experiment: Boyden chamber migration assay, human NSPCs; assay type: cell-based
Experimental: (§2) The effects of SCF on NSPC migration were determined by a modified Boyden chamber assay as described previously (Sun, L. et al. 2001 Cancer Res. 61:4994-5001). A 96-well cell migration kit was utilized (Chemicon, Temecula, Calif., USA) and each well was separated into two chambers by a membrane with 8-μm pores. The cells were briefly trypsinized and adjusted to 4×10^5 cells/ml in 1:20 dilution of B27 medium without growth factors. Some cells were pretreated with a c-Kit-blocking antibody (ACK45, PharMingen, San Diego, Calif., USA) for 30 min at room temperature. Migration of NIH 3T3 cell was also assayed as a control. Recombinant mouse SCF (rmSCF) (R&D systems, Minneapolis, Minn., USA) was dissolved in the same medium and adjusted to the various concentrations. After different concentrations of SCF or brain tissue lysates were added to the lower chamber as attractants, 100 μl of the NSPCs (4×10^4) were applied to the upper chamber on the top of membrane. A group of control chambers without rmSCF was also included. After 4 hours of incubation at 37° C., the migratory cells on the bottom of the insert membrane were dissociated from the membrane by incubation with cell detachment buffer.

bMVEC-B cells = experiment: bMVEC-B DNA synthesis by thymidine incorporation (Example 3); assay type: cell-based; conditions: 72 hours
Experimental: To specifically confirm the pro-angiogenic effects of SCF in the brain, bMVEC-B cells were used. The cells were cultured in the presence of different concentrations of rmSCF (1 ng/ml to 250 ng/ml) or 0.1% BSA only medium for 72 hours. The rate of DNA synthesis was measured by thymidine incorporation.

NIH 3T3 cells = experiment: Boyden chamber migration assay, NIH 3T3 negative control cells; assay type: cell-based; conditions: regardless of the concentration used
Experimental: as §2

mouse NSPCs = experiment: Boyden chamber migration assay, mouse NSPCs; assay type: cell-based
Experimental: as §2

[7] = rmSCF 3 μg intracerebral, day 7, SCID mice

Molecule: β-FGF: positive control angiogenic growth factor (R&D Systems) [reference compound]
- angiogenesis in Matrigel plug (H&E, vWF-positive vessels) (SCID mice [1]): high density of blood vessels; also recorded: induced substantial angiogenesis

Molecule: bevacizumab: VEGF antibody (Genentech), systemically administered
- subcutaneous tumor growth (U251 glioma): suppressed subcutaneously implanted human glioma growth; also recorded: profound tumor growth suppression

- lowest rmSCF concentration with a statistically significant increase in NSPC migration (Boyden chamber) [2]: 10 ng/mL
- lowest rmSCF concentration with a statistically significant increase in NSPC migration (Boyden chamber) [3]: 5 ng/mL
Molecule: Recombinant mouse SCF (rmSCF) (from UniProt P20826 26-189) (ligand)

- c-Kit tyrosine phosphorylation following SCF stimulation (c-Kit [4]): strongly phosphorylated
- c-Kit tyrosine phosphorylation following SCF stimulation (c-Kit [6]): strongly phosphorylated
B1: rmSCF: Recombinant mouse SCF (rmSCF) (R&D systems) (protein)
chain: KEICGNPVTDNVKDITKLVANLPNDYMITLNYVAGMDVLPSHCWLRDMVIQLSLSLTTLLDKFSNISEGLSNYSIIDKLGKIVDDLVLCMEENAPKNIKESPKRPETRSFTPEEFFSIFNRSIDAFKDFMVASDTSDCVLSSTLGPEKDSRVSVTKPFMLPPVA
- blood vessel formation within the matrigel plug (H&E) (SCID mice [5]): obviously abundant
- number of BrdU-positive cells in SCF-injected area (1.5-mm^2 section) compared to the contralateral side (endogenous NSPCs; [7]): approximately twice
- number of BrdU-positive cells in injected area, SCF-treated compared to PBS-treated animals (endogenous NSPCs; [7]): 2.3 times
- BrdU-positive cells in the SCF-injected area (endogenous NSPCs; vs contralateral side and PBS-injected animals, day 7): significant numbers of BrdU-positive cells
- lowest SCF concentration with statistically significant increase in cell migration (human NSPCs): 10 ng/mL
- NSPC migration (human NSPCs; rmSCF 5-500 ng/ml, 4 hours): stimulated in a dose-dependent manner; also recorded: significant chemoattractive effect on NSPC in a dose dependent manner
- lowest concentration at which bMVEC-B responded to SCF stimulation (bMVEC-B cells): 1 ng/mL
- bMVEC-B DNA synthesis (thymidine incorporation) (bMVEC-B cells; rmSCF 1 ng/ml to 250 ng/ml): strongly stimulated bMVEC-B DNA synthesis
- migration of NIH 3T3 cells (NIH 3T3 cells): did not induce migration
- lowest SCF concentration with statistically significant increase in cell migration (mouse NSPCs): 5 ng/mL
- NSPC migration (mouse NSPCs; rmSCF 5-500 ng/ml, 4 hours): stimulated in a dose-dependent manner; also recorded: significant chemoattractive effect on NSPC in a dose dependent manner
